# Source: PMC8131929 (The Journal of Biological Chemistry, 2021)
# B1: His–Xpo 4 (exportin 4, Mus musculus) (natural protein)
# chain: not shown
# Biological target: RanQ69L(aa1-180)–GTP (UniProt P62826 1-180, Q69L)
# Assay: pull-down
binder,measurement,value
B1,binding result,binds
